Laboratory results published in patent US20130101582A1, “Tiki1 and Tiki2, Wnt Inhibitors” (CHILDREN'S MEDICAL CENTER CORPORATION, priority 2010, published 2013).

Columns and labels:
Wnt3a = Wnt3a (Mus musculus, UniProt P27467); assay: Metabolic labeling (az-15 / 35S) to quantify Wnt3a acylation in HEK293T cells; assay type: cell-based; parameters: expressed in transfected cells; host or cells: HEK293T; details: co-expressed with Wnt3a in HEK293T cells; versus GFP control
Procedure: FIG. 6E is a gel showing that Tiki2, but not the control GFP, reduces Wnt3a acylation in HEK293T cells (Top panel). The total amount of Wnt3a is constant (bottom panel).
Metabolic labeling was performed to quantify Wnt3a acylation. Wnt3a co-expressed with GFP (control) or hTiki2 in HEK293T cells was metabolically labeled with an azido-palmitic acid analog (az-15) and [^35S]-Methionine/Cysteine. Wnt3a secreted in the culture medium was immunoprecipitated and subjected to click chemistry reaction using the Rhodamine-labeled ALK reagent (ALK-Rho), which reacts with az-15 (Charron G et al., JACS 131, 4967, 2009). The fluorescent signal indicates the acylation amount of Wnt3a whereas ^35S signal indicates the total amount of Wnt3a protein (FIG. 6E). […] Thus the maximal reduction of acylation by Tiki2 is expected to be 50% if the deacylation is complete and there are only two acylation sites. The 31% reduction we observed is consistent with the possibility of three acylation sites, although it is also possible that there are only two acylation sites in Wnt3a, and Tiki2 deacylation of one of these two sites was incomplete in our experiment.

TOPFLASH reporter = TOPFLASH reporter activation by Wnt3a produced from Tiki2-expressing L cells; assay type: cell-based; details: Wnt3a CM
From the text: (§1) As Tiki proteins are related to bacterial proteins of unknown function, it was speculated that Tiki may antagonize Wnt signaling through a novel mechanism, possibly in an enzymatic fashion. Human Tiki2 was stably expressed in L cells or Wnt3a-expressing L cells (human Tiki1 was poorly expressed in L cells). […] In fact Wnt3a CM restored beta-catenin stabilization in Wnt3a-expressing cells that also expressed Tiki2 (FIG. 5A).

Wnt3a signaling = assay: TOPFLASH reporter assay, Wnt3a co-transfected with Tiki1 or Tiki2 in HEK293T cells; assay type: cell-based, human
From the text: Wnt3a and Tiki1 or Tiki2 were co-transfected. The TOPFLASH reading (normalized to Renilla) in Wnt3a alone was set as 100. DNA transfection amounts are shown per well in a standard 24-well plate format. Representative data from one of three independent experiments is shown.
The enlarged head phenotype by Tiki1 overexpression is indistinguishable from that by overexpression of Dkk1, a Wnt/LRP6 antagonist (MacDonald, B. T. et al., Dev Cell 17, 9-26 (2009); Glinka, A. et al., Nature 391, 357-362 (1998)). […] Thus Tiki1 likely acts at or upstream of Wnt receptors. […] Xenopus Tiki2, and human Tiki1 and Tiki2 also behaved as Wnt antagonists in Xenopus embryos, HEK293T cells (FIG. 2C) and mouse L cells (FIG. 5A).

[1] = system: beta-catenin stabilization; assay: Beta-catenin stabilization in Wnt3a-expressing L cells, Western blotting; assay type: cell-based, mouse; details: Wnt3a-producing L cells stably expressing human Tiki2
Procedure: Wnt3a CM rescued Tiki2 inhibition of beta-catenin stabilization in Wnt3a-expressing cells. Indicated cell lines were treated with control or Wnt3a CM for 2 hrs and whole cell lysates (WCL) were subjected for Western blotting. Beta-tubulin was a loading control.
as §1

mFz8CRD-IgG = target: T1, mFz8CRD-IgG (Mus musculus, UniProt Q61091); assay: Binding of Wnt3a CM to mFz8CRD-IgG, protein G precipitation
T1 construct: using the extracellular domain of mouse Fz8 (mFz8CRD-IgG) or LRP6 (LRP6N-IgG)
T1 sequence (Q61091 30-151 limits assumed): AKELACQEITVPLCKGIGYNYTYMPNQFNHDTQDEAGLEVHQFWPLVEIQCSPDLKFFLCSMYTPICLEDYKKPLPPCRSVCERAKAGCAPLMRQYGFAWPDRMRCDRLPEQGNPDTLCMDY
Procedure: Wnt3a CM was incubated with LRP6N-IgG or mFz8CRD-IgG. The protein complexes were precipitated by protein G agarose and subjected for Western blotting.
as §1

Sequence of Wnt3a (P27467 19-352): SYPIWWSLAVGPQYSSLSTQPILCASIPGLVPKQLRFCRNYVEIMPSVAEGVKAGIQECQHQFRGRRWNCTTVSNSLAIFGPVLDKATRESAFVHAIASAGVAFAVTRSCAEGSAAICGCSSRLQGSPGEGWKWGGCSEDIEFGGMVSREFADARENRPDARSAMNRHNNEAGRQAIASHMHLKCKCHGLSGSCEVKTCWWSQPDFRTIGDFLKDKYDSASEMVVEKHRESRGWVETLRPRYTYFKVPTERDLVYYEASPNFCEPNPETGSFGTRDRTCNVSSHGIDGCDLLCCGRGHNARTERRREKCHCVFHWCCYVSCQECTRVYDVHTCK

Reduction of Wnt3a acylation (Wnt3a): about 31% | Binding of Wnt3a secreted from Tiki2-expressing cells to Fz (mFz8CRD-IgG) (mFz8CRD-IgG): failed to bind to either Fz or LRP6
B1: Tiki2: Human Tiki2 (XP 371250/LOC388630) (SEQ ID NO:2), expressed in L or HEK293T cells (protein, listed as Homo sapiens)
chain: MHAALAGPLLAALLATARARPQPPDGGQCRPPGSQRDLNSFLWTIRRDPPAYLFGTIHVPYTRVWDFIPDNSKAAFQASTRVYFELDLTDPYTISALASCQLLPHGENLQDVLPHELYWRLKRHLDYVKLMMPSWMTPAQRGKGLYADYLFNAIAGNWERKRPVWVMLMVNSLTERDVRFRGVPVLDLYLAQQAEKMKKTTGAVEQVEEQCHPLNNGLNFSQVLFALNQTLLQQESVRAGSLQASYTTEDLIKHYNCGDLSAVIFNHDTSQLPNFINTTLPPHEQVTAQEIDSYFRQELIYKRNERMGKRVMALLRENEDKICFFAFGAGHFLGNNTVIDILRQAGLEVDHTPAGQAIHSPAPQSPAPSPEGTSTSPAPVTPAAAVPEAPSVTPTAPPEDEDPALSPHLLLPDSLSQLEEFGRQRKWHKRQSTHQRPRQFNDLWVRIEDSTTASPPPLPLQPTHSSGTAKPPFQLSDQLQQQDPPGPASSSAPTLGLLPAIATTIAVCFLLHSLGPS
Activity of Wnt3a produced from Tiki2-expressing L cells in activation of TOPFLASH reporter expression (TOPFLASH reporter): minimal activity | Wnt3a signaling, TOPFLASH reporter (Wnt3a signaling): inhibit Wnt3a signaling | Beta-catenin stabilization [1]: inhibited beta-catenin stabilization
